In US20100267609A1 (OKLAHOMA MEDICAL RESEARCH FOUNDATION, published 2010):
Where no end group is shown, it is not given here. [ ]: non-standard residue; d: D form. FAM = 5-(and 6-)carboxyfluorescein; resin = not defined here; Ahx = NCCCCCC(=O)O

Assays:
[1] = target: T1, memapsin 1 (amino acid residues 58-461 of SEQ ID NO: 4) (Homo sapiens (Human), UniProt Q9Y5Z0 63-466); experiment: inhibition of cleavage of fluorogenic substrate FS-2
T1 construct: also called Mep1; M1
T1 sequence: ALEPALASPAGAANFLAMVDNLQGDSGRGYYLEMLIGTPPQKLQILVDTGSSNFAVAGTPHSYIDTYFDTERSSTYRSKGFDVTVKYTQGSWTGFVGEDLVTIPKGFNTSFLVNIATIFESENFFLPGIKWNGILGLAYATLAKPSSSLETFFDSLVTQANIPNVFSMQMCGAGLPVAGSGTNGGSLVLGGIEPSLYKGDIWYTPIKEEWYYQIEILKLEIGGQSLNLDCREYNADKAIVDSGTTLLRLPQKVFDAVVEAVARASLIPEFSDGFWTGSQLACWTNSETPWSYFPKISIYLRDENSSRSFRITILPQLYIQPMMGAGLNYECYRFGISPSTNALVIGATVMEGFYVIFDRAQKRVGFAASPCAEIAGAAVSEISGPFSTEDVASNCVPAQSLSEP

[2] = target: T2, memapsin 2 (spontaneously activated promemapsin 2-T1; amino acids 43-456 and 45-456 of SEQ ID NO: 8) (human, UniProt P56817 41-454); experiment: as above
T2 construct: also called Mep2; M2
T2 sequence (P56817 41-454 Q214G): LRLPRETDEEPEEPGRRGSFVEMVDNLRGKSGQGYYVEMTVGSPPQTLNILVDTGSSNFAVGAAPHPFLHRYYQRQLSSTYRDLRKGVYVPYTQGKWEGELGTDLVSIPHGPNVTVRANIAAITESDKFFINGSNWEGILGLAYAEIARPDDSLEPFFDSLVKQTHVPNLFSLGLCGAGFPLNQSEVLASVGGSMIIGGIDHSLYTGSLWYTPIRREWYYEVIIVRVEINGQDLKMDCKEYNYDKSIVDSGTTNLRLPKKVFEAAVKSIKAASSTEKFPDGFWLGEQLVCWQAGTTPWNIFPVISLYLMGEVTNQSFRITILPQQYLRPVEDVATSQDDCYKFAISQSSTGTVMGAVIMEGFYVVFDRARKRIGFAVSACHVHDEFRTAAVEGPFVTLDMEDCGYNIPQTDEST

[3] = target: T1, memapsin 1 (amino acid residues 58-461 …); experiment: ratio of Ki apparent for memapsin 1 to that for memapsin 2
[4] = target: T2, memapsin 2 (spontaneously activated …); experiment: inhibition of cleavage of a fluorogenic substrate
[5] = target: T2, memapsin 2 (spontaneously activated …); experiment: bead library probed with 4 nM memapsin 2, OM99-2 wash, anti-memapsin 2 IgG and alkaline phosphatase staining
[6] = target: T2, memapsin 2 (spontaneously activated …); experiment: kinetic inhibition of memapsin 2, fluorogenic substrate

B1: OM00-3 (ELDL*AVEF; Glu-Leu-Asp-Leu*Ala-Val-Glu-Phe) (peptide)
peptide: ELDLAVEF
modifications: numbers in words are those of the source; also: Leu4*Ala5: hydroxyethylene transition-state isostere -CH(OH)-CH2- replaces the peptide bond
- Ki apparent [1]: 0.18 nM
- Ki apparent [2]: 0.31 nM
- Ki apparent (M1/M2) [3]: 0.59
- Ki [4]: 0.31 nM
- fold improvement of Ki relative to OM99-2 [4]: 5.2 fold
- fold lower Ki than OM99-2 [4]: ~5 fold

B2: library bead Gly-Ile-Asp-Leu*Ala-Ala-Gln-Phe-Arg-Met-Gly-Gly-resin (peptide)
peptide: GIDLAAQFRMGG-resin
modifications: reading uncertain; also: hydroxyethylene isostere between Leu4 and Ala5, printed as Gly-Ile-Asp-Leu*Ala-Ala-Gln-Phe-Arg-Met-Gly-Gly-resin
- binding result [5]: binds

B3: CPI-1: FAM-Ahx-(EVNL*AAEF)-G-([…]) (peptide)
peptide: {FAM-Ahx}-EVNLAAEFGYGRKKRRQRRR
modifications: numbers in words are those of the source; also: Leu4*Ala6: hydroxyethylene isostere -CH(OH)-CH2- replaces the amide bond
notes: OM99-2 joined through Gly to HIV tat residues 47-57; also called Fs[OM99-2]tat
- Ki apparent [6]: 39 nM

B4: CPI-3: (ELDL*AVEF)-GG-(RRRRRRRRR) (peptide)
peptide: ELDLAVEFGG[dR][dR][dR][dR][dR][dR][dR][dR][dR]
modifications: numbers in words are those of the source; also: Leu4*Ala6: hydroxyethylene isostere -CH(OH)-CH2- replaces the amide bond
- Ki [6]: 35 nM

B5: CPI-2: FAM-Ahx-(ELDL*AVEF)-GG-(RRRRRRRRR) (peptide)
peptide: {FAM-Ahx}-ELDLAVEFGG[dR][dR][dR][dR][dR][dR][dR][dR][dR]
modifications: numbers in words are those of the source; also: Leu4*Ala6: hydroxyethylene isostere -CH(OH)-CH2- replaces the amide bond
notes: OM00-3 joined through Gly-Gly to nine D-arginines
- Ki apparent [6]: 58 nM
